The supplement of paper PMC9170038

Test system: MS2 coat protein
Assay: apparent KD of MS2 coat protein; designed switch direction (-1 OFF switch, 1 ON switch): -1; higher = weaker reporter binding
In short: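 On Illumina chips, designed RNA switches with common flanks were made by stalled E. coli RNA polymerase. Titrations with SNAP-549-labelled MS2 coat protein, doubling from 0.7 or 1.5 nM to 3 µM, were done with no input, with 200 uM small-molecule ligand, or with an oligonucleotide input. Apparent KD is the median per design over clusters, from curve fits of normalised cluster fluorescence.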

[1] = input ligand: microRNA oligo, concentration not stated
[2] = Eterna round: R95, input ligand: FMN 200 uM
[3] = Eterna round: R95, input ligand: microRNA oligo, concentration not stated
[4] = Eterna round: R95, input ligand: none

Row | Sequence | apparent KD of MS2 coat protein (input ligand: FMN 200 uM) | apparent KD of MS2 coat protein (input ligand: none) | apparent KD of MS2 coat protein [3] | other results
1 | UUAGAUAGGUCAGGAUAUCGAUGAUUGAAUUGUAUGAUUUACAUGAGGAUCACCCAUGUUUUGUACGAGAAGGGACGUUAGUUU [JR_ExcNG2_Sub019] (Eterna round: R96, puzzle: Exclusion NG 2) | 0.0253 µM | 0.0335 µM | – | apparent KD of MS2 coat protein [1]: 0.0261 µM
2 | GUUUCACAUGAGGAUCACCCAUGUGAGGAUAUCCAUUUGUUAACCGUAGUUAAUAGAUGGAGAAGGCGCGUGAU [JRxlusion 6 - Jieux - Exclusion 1] (Eterna round: R97, puzzle: Exclusion 1) | 0.0666 µM | 0.0629 µM | – | –
3 | AAACACUUAGGAUAUACAUGAGGAUCACCCAUGUCAGACAACGACUACACAAAGUCAUGUAGAAGGAAGUCAAG [Islarele] (puzzle: Exclusion 3) | – | – | 0.0241 µM | apparent KD of MS2 coat protein [2]: 0.0243 µM; apparent KD of MS2 coat protein [4]: 0.026 µM
4 | GUUACACAUGAGGAUCACCCAUGUAAGGAUAUGCUGCGGUCGCGCUGACGUGACUGCAGCAGAAGGUACACAUG (puzzle: Exclusion 1) | – | – | 0.0868 µM | –
5 | GGCGAGCGAGGAUAUACAGGGUAUCCGACUCGCCGCGGGCGACAUGAGGAUCACCCAUGUAGAAGGCGCACGCG [EX2 A.18] (Eterna round: R97, puzzle: Exclusion 2) | 0.0139 µM | 0.0176 µM | – | –
6 | CCCACAAGCUUUUUGCUCGACAUGAGGAUCACCCAUGUAAAAUGGGUAAAUUUAAAUUGAAACAAUUUAAAUUUGGG [-20.1, -44.2 kcal, A 35%] (Eterna round: R97, puzzle: Sensor, turn-off variant 1) | 0.262 µM | 0.222 µM | – | –
7 | AUGUGCACGCUGCGAUCCUACAUGAGGAUCACCCAUGUGGUCUGGUGGCGUGGGUCACCGGACUUGGCUCGUCUUGG [salish99_S_TOV1_R5_075] (Eterna round: R97, puzzle: Sensor, turn-off variant 1) | 0.139 µM | 0.17 µM | – | –
8 | CACUUGGCAGGAUAUGCAAUUUUAGACAUGAGGAUCACCCAUGUGAUCAUUCCAUAUUAUGCAGAAGGGCCUAAAC [JR_E5_Sub050] (puzzle: Exclusion 5) | – | – | 0.214 µM | –
9 | GGAAAGUGAGGAUAUGGUAAUUUAAUUAUUAAUUAAUUAAUCCAGAAGGCACAUGAGGAUCACCCAUGUAAAUG [Mat - Exclusion 4 - D91] (puzzle: Exclusion 4) | – | – | 0.03 µM | –
10 | ACACACAGAGGAUAUCUUCCGCAUGACAUGAGGAUCACCCAUGUGUGCAUGCCCAAAAGUAGAGAAGGCUGUGUGU [eternacac ex5r4 #3] (Eterna round: R97, puzzle: Exclusion 5) | 0.0271 µM | 0.0356 µM | – | –
11 | AAGACCUUUGUCAGGAUAUCAAGGCAAUUCGCCGGUGAGAAGGGACAUGAGGAUCACCCAUGUAAAGAAAAGAA [Rausedlave] (puzzle: Brourd's mod of Exclusion 4) | – | – | 0.0201 µM | apparent KD of MS2 coat protein [2]: 0.069 µM; apparent KD of MS2 coat protein [4]: 0.0197 µM
12 | CGCUGGACAGGAUAUGUUCUUGGGCACUUGAGGAUCACCCAAGUCAUCAAGACAACAGGCACAGAAGGGUUUAUGG [salish99_ex5_r4_023] (Eterna round: R97, puzzle: Exclusion 5) | 0.0206 µM | 0.0184 µM | – | –
13 | AAUAACAGAGGAUAUACUAUUUUAUGUGUUUAUUGUUUUAAACAUGAGGAUCACCCAUGUAGAAGGCUGAUUAA [JMF 45] (puzzle: Exclusion 2) | – | – | 0.0619 µM | –
14 | ACUUGUGUUGAGGAUAUGCGCCGGCUCGCUGGCGCAGAAGGCGGCACAUGAGGAUCACCCAUGUCAGUUCGCGU [salish99_ex6_r004_002] (Eterna round: R97, puzzle: Exclusion 6) | 0.3 µM | 0.0264 µM | – | –
15 | AUAUUAAGUGUGAGGAUAUGCUGGUCCUUGGAUCAGCAGAAGGCACAUGAGGAUCACCCAUGUAAUAUAUUUAU [Mat - Exclusion 4 - JL Mod - D47] (puzzle: Brourd's mod of Exclusion 4) | – | – | 0.0786 µM | –
16 | GGAUCGAGUGUGAGGAUAUGCUGGUCCUAAGAUCAGCAGAAGGCACAUGAGGAUCACCCAUGUGAAAACGGUCC [Mat - Exclusion 4 - JL Mod - D71] (puzzle: Brourd's mod of Exclusion 4) | – | – | 0.0235 µM | –
17 | GAUAGAGAGCAGGAUAUCUUGGGUAAGUAUCGUAGAGAAGGGCUCACAUGAGGAUCACCCAUGUGGUCCUAGAU [JL Dibiri mod 03] (puzzle: Exclusion 6) | – | – | 0.0115 µM | –
18 | UACAUGAGGAUCACCCAUGUUUUGUCGUGUAUGGUAUUUAUCUAGGAUAUCAAUUUAUUUAGUUAUGAGAAGGAGAAUAUUAAU [JMF's solution 22] (Eterna round: R96, puzzle: Exclusion NG 3) | 0.0468 µM | 0.0379 µM | – | apparent KD of MS2 coat protein [1]: 0.0277 µM

Row | Sequence | apparent KD of MS2 coat protein (input ligand: FMN 200 uM) | apparent KD of MS2 coat protein (input ligand: none) | apparent KD of MS2 coat protein [3] | other results
19 | GUACGUAGAGGAUAUGGUUAUGAUGACAUGAGGAUCACCCAUGUUAGAGUGGGUAGAUUUCCAGAAGGCUGUGAAC [Eternabot (L1) Solution 98] (Eterna round: R97, puzzle: Exclusion 5) | 1.06 µM | 1.33 µM | – | –
20 | CCGGAAAUGCAGGAUAUCGUAUCGGAUACGAUACGAGAAGGGUAUACAUGAGGAUCACCCAUGUGUCCUCCCGG [Fiskers Ex 6 - 53] (puzzle: Exclusion 6) | – | – | 0.028 µM | –
21 | UGGUUGUCAGGAUAUACGGUUUUUAACUUUAGUUUUAUAUUGUAGAAGGGACAUGAGGAUCACCCAUGUUACGU [LRO-Excl4-11-Bluer Omei Mod] (Eterna round: R97, puzzle: Exclusion 4) | 0.0295 µM | 0.0265 µM | – | –
22 | AAUCCUAGCGUAAGGAUAUCAAAACUAUCCCGUUAUGAGAAGGUACAUGAGGAUCACCCAUGUUAAUGGGAUAA [BmEX4 A.19] (Eterna round: R97, puzzle: Brourd's mod of Exclusion 4) | 0.0202 µM | 0.0193 µM | – | –
23 | GCUGGUCAAGGAUAUGCAUUCGUGCUUCGGCACGUAAGGUCACAUGAGGAUCACCCAUGUAGAAGGUGACCAGC [E2/6-C1] (Eterna round: R97, puzzle: Exclusion 2) | 0.0316 µM | 0.0209 µM | – | –
24 | AGUAACUCAAGAGGAUAUCACAUGAGGAUCACCCAUGUAUAGCGCGCUACGCUAGUCCUCGUAUUUGAGAAGGUUUGAUAAAUG [Quve] (Eterna round: R96, puzzle: Exclusion NG 2) | 0.0104 µM | 0.0143 µM | – | apparent KD of MS2 coat protein [1]: 0.0114 µM
25 | GCUAGGCAUGUCAGGAUAUGCAGAUCCUUGGAUCUGCAGAAGGGACAUGAGGAUCACCCAUGUGCCAACCUAGC [Mat - Exclusion 4 - JL Mod - D11] (Eterna round: R97, puzzle: Brourd's mod of Exclusion 4) | 0.609 µM | 0.047 µM | – | –
26 | AAAAGGCUAGGAUAUCGCGGUAACAACAUGAGGAUCACCCAUGUGAAGGUGUCUUCUGCCCGAGAAGGAGCAGAGU [Tientixe] (puzzle: Exclusion 5) | – | – | 0.0256 µM | apparent KD of MS2 coat protein [2]: 0.0432 µM; apparent KD of MS2 coat protein [4]: 0.0299 µM
27 | GUGGUACAUGAGGAUCACCCAUGUAAGGAUAUAGUCGGCUGGUGGUCGCGGGUGGUGGCUAGAAGGUGCGUGCG [-19.6, -18.2 kcal, A 19%] (Eterna round: R97, puzzle: Exclusion 1) | 0.101 µM | 0.114 µM | – | –
28 | CCCUCGGGAGGAUAUGGGUGUUUUUACAUGAGGAUCACCCAUGUGGAGUAGCAUGUGGGUCCAGAAGGCCCAAGGG [-27.5, -25.8 kcal, 22% A] (Eterna round: R97, puzzle: Exclusion 5) | 0.873 µM | 0.815 µM | – | –
29 | UUAUUAAUUAAGACUGCAAGAUCACAUGAGGAUCACCCAUGUCAGGAUAUCAGCUCGUGUAGAGCUGAGAAGGGACAAGCAGUC [ExNG3/15-A3] (Eterna round: R96, puzzle: Exclusion NG 3) | 0.314 µM | 0.123 µM | – | apparent KD of MS2 coat protein [1]: 0.0975 µM
30 | GAUUAUGCGAGCUUUAGGGACAUGAGGAUCACCCAUGUUCGUCUUAUUGGUCUGGAUACGCUAACAUACCUAAAUCU [JMF 38] (puzzle: Sensor v3, turn-off variant 1) | – | – | 0.0306 µM | apparent KD of MS2 coat protein [2]: 0.0215 µM; apparent KD of MS2 coat protein [4]: 0.0248 µM
31 | AAAUCCGCUGAGGAUAUGAUGACUGAGAGGUCAUCAGAAGGCGGUACAUGAGGAUCACCCAUGUCUAUGGGCAA [Ex-6 Malc#29] (puzzle: Exclusion 6) | – | – | 0.317 µM | apparent KD of MS2 coat protein [2]: 0.313 µM; apparent KD of MS2 coat protein [4]: 0.636 µM
32 | GCGGUACAUGAGGAUCACCCAUGUCAGGAUAUCCGCUGUUUGUUGAUAAGCAGGCGGUGGAGAAGGGACUUCGC [-26.7, -26 kcal, 23% A] (Eterna round: R97, puzzle: Exclusion 1) | 0.0397 µM | 0.0338 µM | – | –
33 | GAGUAGUAAGGAUAUAGUAGGAGGGAGAAGUGAGGAGAGAACUAGAAGGUACAUGAGGAUCACCCAUGUUGAGA [JR_Exclu4_Sub084] (puzzle: Exclusion 4) | – | – | 0.0192 µM | apparent KD of MS2 coat protein [2]: 0.0243 µM; apparent KD of MS2 coat protein [4]: 0.0195 µM
34 | CCAGCGUAUGUGAGGAUAUGCUGGUCCUUGGAUCAGCAGAAGGCACAUGAGGAUCACCCAUGUGGAAACGUUGG [Mod of JL 1 - Jieux - Brourd's mod of Exclusion 4] (Eterna round: R97, puzzle: Brourd's mod of Exclusion 4) | 0.0954 µM | 0.0243 µM | – | –
35 | AAGAGAGCAGGAUAUCGGUUUUGCGACAUGAGGAUCACCCAUGUGAGCCGAGUCCAACGCCGAGAAGGGCUAAAAU [Onesis] (puzzle: Exclusion 5) | – | – | 0.0533 µM | –
36 | AAGAAACAUGAGGAUCACCCAUGUGAGGAUAUGACCAAGAAAAGAAAAGAAAGAAGAAUCAGAAGGCACAAAGG [salish99-ex1_r3_051] (puzzle: Exclusion 1) | – | – | 0.0472 µM | apparent KD of MS2 coat protein [2]: 0.0477 µM; apparent KD of MS2 coat protein [4]: 0.0702 µM
